We go through one molecule from US20160266136A1 (Stanford University, published 2016).

Assay [1] has as its target T1, mouse Gas6 (mouse, UniProt Q61592 46-674, limits assumed).
T1 construct: Used both for the KinExA value against mouse Gas6 and for the endogenous Gas6 in the serum of the nude mice; also called Gas6 (in serum of mice)
T1 sequence (looked up): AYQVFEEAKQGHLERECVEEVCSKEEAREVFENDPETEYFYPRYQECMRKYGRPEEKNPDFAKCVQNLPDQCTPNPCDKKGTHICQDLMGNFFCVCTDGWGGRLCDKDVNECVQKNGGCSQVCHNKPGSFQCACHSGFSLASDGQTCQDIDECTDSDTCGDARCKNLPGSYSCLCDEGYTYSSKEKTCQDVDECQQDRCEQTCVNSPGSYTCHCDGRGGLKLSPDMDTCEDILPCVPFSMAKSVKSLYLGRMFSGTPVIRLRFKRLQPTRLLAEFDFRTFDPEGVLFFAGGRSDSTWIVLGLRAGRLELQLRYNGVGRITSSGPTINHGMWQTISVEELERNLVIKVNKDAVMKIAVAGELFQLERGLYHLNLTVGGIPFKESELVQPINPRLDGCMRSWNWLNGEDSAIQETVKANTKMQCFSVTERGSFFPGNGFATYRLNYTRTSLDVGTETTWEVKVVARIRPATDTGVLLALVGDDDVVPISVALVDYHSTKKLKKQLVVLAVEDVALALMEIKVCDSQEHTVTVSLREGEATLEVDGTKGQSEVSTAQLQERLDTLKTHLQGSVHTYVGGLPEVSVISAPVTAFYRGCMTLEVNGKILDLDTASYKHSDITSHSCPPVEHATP
In words: KinExA; column Kd(pM) mGas6.
Description: (§1) A KinExA 3200 instrument (Sapidyne Instruments Inc.) was used to measure equilibrium binding and association rate constants for the Gas6-Axl interactions. […] Adsorption coating of 200 mg of beads was performed using 45 μg of protein at room temp for 1 h. The protein solution was then removed and beads were blocked using PBS with 1% BSA for 2 h at room temp. Beads were stored in blocking buffer at 4° C. and used within two weeks. All binding reactions were carried out in phosphate buffered saline with 1 mg/ml BSA and 0.02% sodium azide.
(§2) For equilibrium binding studies, three independent titrations were completed for each Axl Ig1 or Axl Fc fusion unless otherwise noted. […] Each sample was analyzed twice and data from the three independent equilibrium binding experiments were globally analyzed using n-curve analysis in the KinExA Pro 3.6.2 software (Sapidyne Instruments Inc.) to obtain the Kd value.

Assay [2] deals with T1, mouse Gas6. Briefly: KinExA. Background: A kinetic exclusion assay measures how much of one partner remains free in solution.
Description: as §1, §2
For another assay, the target named is T2, Protein S (OriGene) (UniProt P07225 42-676).
T2 construct: Carries a c-Myc tag by the detection used
T2 sequence (looked up): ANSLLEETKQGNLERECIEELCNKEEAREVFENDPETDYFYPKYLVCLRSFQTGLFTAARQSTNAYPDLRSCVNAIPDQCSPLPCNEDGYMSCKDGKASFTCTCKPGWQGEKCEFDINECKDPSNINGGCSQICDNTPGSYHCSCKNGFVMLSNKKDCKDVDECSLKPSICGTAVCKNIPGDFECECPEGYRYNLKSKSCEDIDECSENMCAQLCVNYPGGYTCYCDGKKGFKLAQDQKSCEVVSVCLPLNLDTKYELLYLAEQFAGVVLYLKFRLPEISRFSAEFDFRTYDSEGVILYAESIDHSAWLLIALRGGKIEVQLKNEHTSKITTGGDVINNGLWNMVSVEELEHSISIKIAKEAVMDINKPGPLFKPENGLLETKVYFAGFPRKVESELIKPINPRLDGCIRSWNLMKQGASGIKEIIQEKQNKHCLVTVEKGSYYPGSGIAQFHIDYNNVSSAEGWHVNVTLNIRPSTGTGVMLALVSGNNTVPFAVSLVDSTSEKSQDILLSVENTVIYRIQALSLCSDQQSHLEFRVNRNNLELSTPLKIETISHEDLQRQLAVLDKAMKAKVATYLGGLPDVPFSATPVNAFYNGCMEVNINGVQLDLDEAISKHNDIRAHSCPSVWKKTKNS
Briefly: KinExA signal test on MYD1 Fc coated beads, Protein S probed with an anti-c-Myc antibody.

Description for Protein S (OriGene): as §1
To test binding of Protein S (OriGene) to MYD1, 700 μl of a 10 nM solution was flowed over the capture beads.

B1: MYD1 Fc (Fc fusion)
chain: APRGTQAEESPFVSNPGNITGARGLTGTLRCQLQVQGEPPEVHWLRDGQILELADSTQTQVPLGEDEQGDWIVASQLRITSLQLSDTGQYQCLVFLGHQTFVSQPGYVRLEGLPYFLEEPEDRTVAANTPFNLSCQAQGPPEPVDLLWLQDAVPLATAPGHGPQRSLHVPGLNKTSSFSCEAHNAKGVTTSRTATITVLPQQPRNLHLVSRQPTELEVAWTPGLSGIYPLTHCTLQAVLSNDGMGIQAGEPDPPEEPLTSQASVPPHQLRLGSLHPHTPYHIRVACTSSQGPSSWTHWLPVETPEGVPLGPPENISATRNGSQAFVHWQEPRAPLQGTLLGYRLAYQGQDTPEVLMDIGLRQEVTLELQGDGSVSNLTVCVAAYTAAGDGPWSLPVPLEAWRPGQAQPVHQLVKEPSTPAFS
notes: Disulfide-linked dimer from HEK cells; also the capture reagent on the KinExA beads; also called MYD1 Fc fusion; not shown: Fc domain of a human IgG1
Take B1: the dissociation constant Kd was 1.1 pM with mouse Gas6 [1] and roughly 1 pM with mouse Gas6 [2]. Further, in the assay with Protein S (OriGene), the binding result is recorded as “no binding (tested: 10 nM)”.

What is called Kd is the concentration at which binding is half-saturated. Higher therefore signals a looser complex.
